# Measured values from patent publication US20110262445A1 (CEPHALON AUSTRALIA, published 2011).
# T1: human IL-23 (human, UniProt P29460 23-328; Q9NPF7 20-189)
# T1 construct: Recombinant (Ebioscience); HIS-tagged in flow cytometry, biotinylated in some assays; also called hIL-23; rhIL-23
# T1 sequence 1: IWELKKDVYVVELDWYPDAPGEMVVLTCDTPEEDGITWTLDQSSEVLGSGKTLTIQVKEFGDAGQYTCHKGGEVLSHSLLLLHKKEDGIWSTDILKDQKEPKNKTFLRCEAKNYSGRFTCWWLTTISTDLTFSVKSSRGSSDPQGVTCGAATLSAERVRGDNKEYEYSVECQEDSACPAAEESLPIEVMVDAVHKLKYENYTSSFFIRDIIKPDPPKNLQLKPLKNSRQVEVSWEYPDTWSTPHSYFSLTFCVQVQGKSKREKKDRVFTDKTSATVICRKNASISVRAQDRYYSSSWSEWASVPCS
# T1 sequence 2: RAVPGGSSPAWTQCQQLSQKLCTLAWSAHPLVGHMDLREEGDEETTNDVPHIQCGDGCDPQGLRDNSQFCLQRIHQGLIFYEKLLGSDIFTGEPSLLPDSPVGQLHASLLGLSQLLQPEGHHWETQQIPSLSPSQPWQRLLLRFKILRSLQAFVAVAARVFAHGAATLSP
# Target: T1, human IL-23
# Test: SPR, single 81 nM analyte, scFv via FLAG
Binder,Kd,koff,kon
"scFv combo. # 14 (scFv, scFv-80 with VH F29L, Q43R; VL I55T; not shown: proprietary C-terminal FLAG tag) scFv: QVQLVQSGAEVKKPGASVKVSCKASGYTLTDYYLHWVRQAPGRGLEWMGWIDPENGDTEYAPKFQGRVTMTTDTSTSTAYMELRSLRSDDTAVYYCNANKELRYFDVWGQGTMVTVSSGGGGSGGGGSGGGGSEIVMTQSPATLSVSPGERATLSCRASQSISINLHWYQQKPGQAPRLLIYFASQSTSGIPARFSGSGSGTEFTLTISSLQSEDFAVYYCQQSNSFPLTFGGGTKVEIKR",79 pM,2.1e-05 s⁻¹,270000 M⁻¹ s⁻¹

# Target: T1, human IL-23
# Test: SPR screen, crude scFv captured via FLAG
# Protocol: Approximately 6500 individual scFvs recovered from the ribosome display reactions were expressed and screened for binding against IL-23 using a high-throughout SPR assay. The variants were ranked according to the kd and the best variants were sequenced at the nucleic acid level.
# High-throughput SPR screening was conducted using a BIAcore A100 biosensor (GE Healthcare). Approximately 10 000 RU of the proprietary FLAG-specific capture molecule was immobilized on a CM5 Series S Sensor chip, using standard amine coupling chemistry on Spots 1 & 5 (outer spots) and 3,000RU to Spots 2 & 4 (inner spots) in each of the four flow cells of the BIAcore A100 Biosensor. The running buffer used was HBS-EP+ (BIAcore) and all interactions measured at 25° C. Crude periplasmic preparations of FLAG-tagged scFvs (prepared as described in the previous paragraph), were diluted two-fold in running buffer before capturing at a flow rate of 5u1/min for 60 sec. Approx. 100RU (on outer spots) and 50RU (on inner spots) of tagged scFv was captured. Following a 2 min stabilization period, IL-23 was passed over all spots of all four flow cells simultaneously at a flow rate of 30u1/min for 120 sec and dissociation monitored for 200 sec. Generated sensorgrams were referenced against the unmodified spot 3 of each flow cell, and fitted using a 1:1 Langmuir equation with R1 set to local to account for varying ligand densities to generate the kₐ, kd and KD values.
row,Binder,koff
1,"scFv AY-B2 (scFv, scFv-80 variant: VH M69V; not shown: proprietary C-terminal FLAG tag) scFv: QVQLVQSGAEVKKPGASVKVSCKASGYTFTDYYLHWVRQAPGQGLEWMGWIDPENGDTEYAPKFQGRVTVTTDTSTSTAYMELRSLRSDDTAVYYCNANKELRYFDVWGQGTMVTVSSGGGGSGGGGSGGGGSEIVMTQSPATLSVSPGERATLSCRASQSISINLHWYQQKPGQAPRLLIYFASQSISGIPARFSGSGSGTEFTLTISSLQSEDFAVYYCQQSNSFPLTFGGGTKVEIKR",0.0001 s⁻¹
2,"scFv BV-B2 (scFv, scFv-80 variant: VL D82G; not shown: proprietary C-terminal FLAG tag) scFv: QVQLVQSGAEVKKPGASVKVSCKASGYTFTDYYLHWVRQAPGQGLEWMGWIDPENGDTEYAPKFQGRVTMTTDTSTSTAYMELRSLRSDDTAVYYCNANKELRYFDVWGQGTMVTVSSGGGGSGGGGSGGGGSEIVMTQSPATLSVSPGERATLSCRASQSISINLHWYQQKPGQAPRLLIYFASQSISGIPARFSGSGSGTEFTLTISSLQSEGFAVYYCQQSNSFPLTFGGGTKVEIKR",0.00029 s⁻¹
3,"scFv AZ-D8 (scFv, scFv-80 variant: VH Y27C; not shown: proprietary C-terminal FLAG tag) scFv: QVQLVQSGAEVKKPGASVKVSCKASGCTFTDYYLHWVRQAPGQGLEWMGWIDPENGDTEYAPKFQGRVTMTTDTSTSTAYMELRSLRSDDTAVYYCNANKELRYFDVWGQGTMVTVSSGGGGSGGGGSGGGGSEIVMTQSPATLSVSPGERATLSCRASQSISINLHWYQQKPGQAPRLLIYFASQSISGIPARFSGSGSGTEFTLTISSLQSEDFAVYYCQQSNSFPLTFGGGTKVEIKR",4.3e-05 s⁻¹
4,"scFv CE-A6 (scFv, scFv-80 variant: VL G64S; not shown: proprietary C-terminal FLAG tag) scFv: QVQLVQSGAEVKKPGASVKVSCKASGYTFTDYYLHWVRQAPGQGLEWMGWIDPENGDTEYAPKFQGRVTMTTDTSTSTAYMELRSLRSDDTAVYYCNANKELRYFDVWGQGTMVTVSSGGGGSGGGGSGGGGSEIVMTQSPATLSVSPGERATLSCRASQSISINLHWYQQKPGQAPRLLIYFASQSISGIPARFSSSGSGTEFTLTISSLQSEDFAVYYCQQSNSFPLTFGGGTKVEIKR",0.00033 s⁻¹
5,"scFv CW-H1 (scFv, scFv-80 variant: VL S52R; not shown: proprietary C-terminal FLAG tag) scFv: QVQLVQSGAEVKKPGASVKVSCKASGYTFTDYYLHWVRQAPGQGLEWMGWIDPENGDTEYAPKFQGRVTMTTDTSTSTAYMELRSLRSDDTAVYYCNANKELRYFDVWGQGTMVTVSSGGGGSGGGGSGGGGSEIVMTQSPATLSVSPGERATLSCRASQSISINLHWYQQKPGQAPRLLIYFARQSISGIPARFSGSGSGTEFTLTISSLQSEDFAVYYCQQSNSFPLTFGGGTKVEIKR",0.00016 s⁻¹
6,"scFv BZ-G10 (scFv, scFv-80 variant: VL Q27R; not shown: proprietary C-terminal FLAG tag) scFv: QVQLVQSGAEVKKPGASVKVSCKASGYTFTDYYLHWVRQAPGQGLEWMGWIDPENGDTEYAPKFQGRVTMTTDTSTSTAYMELRSLRSDDTAVYYCNANKELRYFDVWGQGTMVTVSSGGGGSGGGGSGGGGSEIVMTQSPATLSVSPGERATLSCRASRSISINLHWYQQKPGQAPRLLIYFASQSISGIPARFSGSGSGTEFTLTISSLQSEDFAVYYCQQSNSFPLTFGGGTKVEIKR",0.00036 s⁻¹
7,"scFv AY-G7 (scFv, scFv-80 variant: VL Y86H; not shown: proprietary C-terminal FLAG tag) scFv: QVQLVQSGAEVKKPGASVKVSCKASGYTFTDYYLHWVRQAPGQGLEWMGWIDPENGDTEYAPKFQGRVTMTTDTSTSTAYMELRSLRSDDTAVYYCNANKELRYFDVWGQGTMVTVSSGGGGSGGGGSGGGGSEIVMTQSPATLSVSPGERATLSCRASQSISINLHWYQQKPGQAPRLLIYFASQSISGIPARFSGSGSGTEFTLTISSLQSEDFAVHYCQQSNSFPLTFGGGTKVEIKR",0.00012 s⁻¹
8,"scFv BY-B4 (scFv, scFv-80 variant: VH T28A; not shown: proprietary C-terminal FLAG tag) scFv: QVQLVQSGAEVKKPGASVKVSCKASGYAFTDYYLHWVRQAPGQGLEWMGWIDPENGDTEYAPKFQGRVTMTTDTSTSTAYMELRSLRSDDTAVYYCNANKELRYFDVWGQGTMVTVSSGGGGSGGGGSGGGGSEIVMTQSPATLSVSPGERATLSCRASQSISINLHWYQQKPGQAPRLLIYFASQSISGIPARFSGSGSGTEFTLTISSLQSEDFAVYYCQQSNSFPLTFGGGTKVEIKR",0.00033 s⁻¹
9,"scFv CW-H7 (scFv, scFv-80 variant: VL V13M; not shown: proprietary C-terminal FLAG tag) scFv: QVQLVQSGAEVKKPGASVKVSCKASGYTFTDYYLHWVRQAPGQGLEWMGWIDPENGDTEYAPKFQGRVTMTTDTSTSTAYMELRSLRSDDTAVYYCNANKELRYFDVWGQGTMVTVSSGGGGSGGGGSGGGGSEIVMTQSPATLSMSPGERATLSCRASQSISINLHWYQQKPGQAPRLLIYFASQSISGIPARFSGSGSGTEFTLTISSLQSEDFAVYYCQQSNSFPLTFGGGTKVEIKR",0.000278 s⁻¹
10,"scFv CL-G7 (scFv, scFv-80 variant: VH E10Q; not shown: proprietary C-terminal FLAG tag) scFv: QVQLVQSGAQVKKPGASVKVSCKASGYTFTDYYLHWVRQAPGQGLEWMGWIDPENGDTEYAPKFQGRVTMTTDTSTSTAYMELRSLRSDDTAVYYCNANKELRYFDVWGQGTMVTVSSGGGGSGGGGSGGGGSEIVMTQSPATLSVSPGERATLSCRASQSISINLHWYQQKPGQAPRLLIYFASQSISGIPARFSGSGSGTEFTLTISSLQSEDFAVYYCQQSNSFPLTFGGGTKVEIKR",0.00012 s⁻¹
